Assays:
human IL-11 = biological target: T1, human IL-11 (human, UniProt P20809 22-199); test: SPR (Biacore), 25 C, antibody captured via anti-Fc, IL-11 as analyte; SPR at 25 C
T1 construct: Invigate recombinant protein; biotinylated when immobilized in the Di-complex ELISA; also called hIL11; hIL-11
T1 sequence: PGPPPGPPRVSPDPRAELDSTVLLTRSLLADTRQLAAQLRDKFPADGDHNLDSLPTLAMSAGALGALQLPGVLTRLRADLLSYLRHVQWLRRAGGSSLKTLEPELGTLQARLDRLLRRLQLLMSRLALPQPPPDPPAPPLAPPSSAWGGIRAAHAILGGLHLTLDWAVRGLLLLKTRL

murine IL-11 = biological target: T2, murine IL-11 (mouse, UniProt P47873 22-199); test: SPR (Biacore), 25 C, antibody captured via anti-Fc, IL-11 as analyte, determined in steady state
T2 construct: Invigate recombinant protein; biotinylated when immobilized in the Di-complex ELISA; also called mIL11; mIL-11
T2 sequence: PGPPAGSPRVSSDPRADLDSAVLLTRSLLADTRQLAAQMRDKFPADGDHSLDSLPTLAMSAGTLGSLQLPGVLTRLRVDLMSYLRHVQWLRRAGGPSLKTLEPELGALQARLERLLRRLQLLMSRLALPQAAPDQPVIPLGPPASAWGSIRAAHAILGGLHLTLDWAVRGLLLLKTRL

B1: TPP-18068 (antibody, mouse IgG1)
heavy: EVQLLESGGGLVQPGGSLRLSCAASGFTFSSYGMHWVRQAPGKGLEWVSVISYDGSYKYYADSVKGRFTISRDNSKNTLYLQMNSLRAEDTAVYYCAAGVPDYWGQGTLVTVSSAKTTPPSVYPLAPGSAAQTNSMVTLGCLVKGYFPEPVTVTWNSGSLSSGVHTFPAVLQSDLYTLSSSVTVPSSTWPSETVTCNVAHPASSTKVDKKIVPRDCGCKPCICTVPEVSSVFIFPPKPKDVLTITLTPKVTCVVVDISKDDPEVQFSWFVDDVEVHTAQTQPREEQFNSTFRSVSELPIMHQDWLNGKEFKCRVNSAAFPAPIEKTISKTKGRPKAPQVYTIPPPKEQMAKDKVSLTCMITDFFPEDITVEWQWNGQPAENYKNTQPIMDTDGSYFVYSKLNVQKSNWEAGNTFTCSVLHEGLHNHHTEKSLSHSPGK
light: QSVLTQPPSASGTPGQRVTISCTGSSSNIGAGYDVHWYQQLPGTAPKLLIYSNNERPSGVPDRFSGSKSGTSASLAISGLRSEDEADYYCAAWDDSLNGPVFGGGTKLTVLGQPKSSPSVTLFPPSSEELETNKATLVCTITDFYPGVVTVDWKVDGTPVTQGMETTQPSKQSNNKYMASSYLTLTARAWERHSSYSCQVTHEGHTVEKSLSRADCS
notes: mIgG1, Lambda
Q: B1 was tested. Which Kd (human IL-11) did it give?
A: 25 nM

B2: TPP-18087 (antibody, mouse IgG1, V domains shown)
VH: EVQLLESGGGLVQPGGSLRLSCAASGFTFSHYDMNWLRQAPGKGLEWVGVISYDGSNKFYADFVKGRFTISRDNSKNTLYLQMNSLRAEDTAVYYCARTPGSHFDYWGQGTLVTVSS
VL: QSVLTQPPSASGTPGQRVTISCSGSSSNIGNNAVNWYQQLPGTAPKLLIYYDDLLPSGVPDRFSGSKSGTSASLAISGLRSEDEADYYCSAWDDSLNGVVFGGGTKLTVLG
notes: mIgG1, Lambda
Q: For B2, which Kd (murine IL-11) is on record?
A: 33 nM
